# Experimental data taken from patent publication US20080175878.
# T1: blood clotting factor VII, P08709
# T1 chain: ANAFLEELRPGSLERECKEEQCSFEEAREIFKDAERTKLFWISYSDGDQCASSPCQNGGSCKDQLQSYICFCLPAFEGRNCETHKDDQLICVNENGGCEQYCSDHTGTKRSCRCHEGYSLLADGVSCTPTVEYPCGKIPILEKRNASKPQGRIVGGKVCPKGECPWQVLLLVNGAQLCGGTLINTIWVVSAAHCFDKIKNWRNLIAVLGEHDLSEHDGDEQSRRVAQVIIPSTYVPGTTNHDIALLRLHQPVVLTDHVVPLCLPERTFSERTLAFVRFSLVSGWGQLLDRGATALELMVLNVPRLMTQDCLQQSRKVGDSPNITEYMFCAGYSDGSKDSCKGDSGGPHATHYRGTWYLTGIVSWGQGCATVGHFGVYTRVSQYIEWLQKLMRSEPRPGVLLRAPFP
# B1: protease for activating the blood clotting factor VII (protein)
# chain 1: LLESLDPDWTPDQYDYSYEDYNQEENTSSTLTHAENPDWYYTEDQADPCQPNPCEHGGDCLVHGSTFTCSCLAPFSGNKCQKVQNTCKDNPCGRGQCLITQSPPYYRCVCKHPYTGPSCSQVVPVCRPNPCQNGATCSRHKRRSKFTCACPDQFKGKFCEIGSDDCYVGDGYSYRGKMNRTVNQHACLYWNSHLLLQENYNMFMEDAETHGIGEHNFCRNPDADEKPWCFIKVTNDKVKWEYCDVSACSAQDVAYPEESPTEPSTKLPGFDSCGKTEIAERKIKR
# chain 2: not shown
# Tests used:
# [1] = molecular target: single chain urokinase plasminogen activator, P00749
# [2] = molecular target: blood clotting factor VIII, P00451
# Sequence of blood clotting factor VIII, P00451 (P00451 whole entry, looked up): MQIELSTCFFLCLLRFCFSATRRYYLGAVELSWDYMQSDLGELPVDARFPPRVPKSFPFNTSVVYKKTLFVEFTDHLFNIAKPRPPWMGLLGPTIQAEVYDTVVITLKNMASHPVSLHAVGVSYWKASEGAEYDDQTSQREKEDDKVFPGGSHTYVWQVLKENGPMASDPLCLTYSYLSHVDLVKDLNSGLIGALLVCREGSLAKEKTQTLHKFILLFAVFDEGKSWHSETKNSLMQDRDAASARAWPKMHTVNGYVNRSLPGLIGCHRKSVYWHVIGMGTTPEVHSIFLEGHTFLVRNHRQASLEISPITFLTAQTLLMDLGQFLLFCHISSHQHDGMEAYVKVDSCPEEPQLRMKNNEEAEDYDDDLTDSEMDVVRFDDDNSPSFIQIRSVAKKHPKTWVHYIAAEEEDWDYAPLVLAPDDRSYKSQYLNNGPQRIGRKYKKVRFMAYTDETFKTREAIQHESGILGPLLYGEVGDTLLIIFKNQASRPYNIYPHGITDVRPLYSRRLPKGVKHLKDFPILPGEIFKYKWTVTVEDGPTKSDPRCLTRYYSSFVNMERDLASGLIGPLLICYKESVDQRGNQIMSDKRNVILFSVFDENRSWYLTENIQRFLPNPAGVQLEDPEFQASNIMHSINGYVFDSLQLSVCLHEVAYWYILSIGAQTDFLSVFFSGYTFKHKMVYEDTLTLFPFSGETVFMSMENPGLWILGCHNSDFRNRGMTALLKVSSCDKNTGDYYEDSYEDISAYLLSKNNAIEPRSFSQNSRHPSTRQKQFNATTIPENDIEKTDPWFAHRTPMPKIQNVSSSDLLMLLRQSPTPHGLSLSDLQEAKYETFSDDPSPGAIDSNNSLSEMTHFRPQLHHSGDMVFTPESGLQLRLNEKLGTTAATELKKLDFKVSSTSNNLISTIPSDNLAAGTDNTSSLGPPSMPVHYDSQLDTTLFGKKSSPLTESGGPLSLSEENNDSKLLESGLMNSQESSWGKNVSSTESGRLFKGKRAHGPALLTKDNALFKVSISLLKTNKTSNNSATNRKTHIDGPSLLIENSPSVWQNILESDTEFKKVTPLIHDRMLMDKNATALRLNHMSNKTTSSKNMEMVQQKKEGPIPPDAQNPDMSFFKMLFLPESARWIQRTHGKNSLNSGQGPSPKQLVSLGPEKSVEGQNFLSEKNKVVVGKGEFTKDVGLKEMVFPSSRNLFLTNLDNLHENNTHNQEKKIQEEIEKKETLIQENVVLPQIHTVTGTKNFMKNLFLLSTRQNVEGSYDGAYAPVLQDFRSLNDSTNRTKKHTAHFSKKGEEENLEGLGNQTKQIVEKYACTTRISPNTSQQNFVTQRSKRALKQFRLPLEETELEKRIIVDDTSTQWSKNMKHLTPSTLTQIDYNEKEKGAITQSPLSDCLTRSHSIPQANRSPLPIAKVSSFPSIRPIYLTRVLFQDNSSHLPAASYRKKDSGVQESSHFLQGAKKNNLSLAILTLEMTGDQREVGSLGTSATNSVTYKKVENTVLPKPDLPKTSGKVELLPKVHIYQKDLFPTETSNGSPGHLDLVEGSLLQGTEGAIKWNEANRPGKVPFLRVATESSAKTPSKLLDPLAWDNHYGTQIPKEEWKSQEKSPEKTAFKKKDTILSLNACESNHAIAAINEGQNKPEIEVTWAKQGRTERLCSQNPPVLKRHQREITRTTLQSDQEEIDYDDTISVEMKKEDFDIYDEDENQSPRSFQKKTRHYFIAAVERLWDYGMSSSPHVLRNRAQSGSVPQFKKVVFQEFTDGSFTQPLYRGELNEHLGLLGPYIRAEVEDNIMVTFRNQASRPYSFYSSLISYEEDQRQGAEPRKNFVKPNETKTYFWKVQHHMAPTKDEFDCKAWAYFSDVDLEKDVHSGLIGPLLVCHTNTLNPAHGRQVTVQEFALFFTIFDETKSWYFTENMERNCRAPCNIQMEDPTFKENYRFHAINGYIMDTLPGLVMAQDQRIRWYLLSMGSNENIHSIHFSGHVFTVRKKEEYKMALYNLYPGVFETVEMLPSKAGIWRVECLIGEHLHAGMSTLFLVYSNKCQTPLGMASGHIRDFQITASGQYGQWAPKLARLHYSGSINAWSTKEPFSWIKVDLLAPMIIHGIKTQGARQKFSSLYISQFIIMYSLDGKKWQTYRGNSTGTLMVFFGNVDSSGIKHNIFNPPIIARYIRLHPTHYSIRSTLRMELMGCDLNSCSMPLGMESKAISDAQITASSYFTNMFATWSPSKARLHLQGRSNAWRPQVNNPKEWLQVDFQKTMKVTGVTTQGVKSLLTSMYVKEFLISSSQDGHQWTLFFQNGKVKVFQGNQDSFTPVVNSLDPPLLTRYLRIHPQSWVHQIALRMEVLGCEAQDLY
# [3] = molecular target: blood clotting factor V, P12259
# Sequence of blood clotting factor V, P12259 (P12259 29-2224): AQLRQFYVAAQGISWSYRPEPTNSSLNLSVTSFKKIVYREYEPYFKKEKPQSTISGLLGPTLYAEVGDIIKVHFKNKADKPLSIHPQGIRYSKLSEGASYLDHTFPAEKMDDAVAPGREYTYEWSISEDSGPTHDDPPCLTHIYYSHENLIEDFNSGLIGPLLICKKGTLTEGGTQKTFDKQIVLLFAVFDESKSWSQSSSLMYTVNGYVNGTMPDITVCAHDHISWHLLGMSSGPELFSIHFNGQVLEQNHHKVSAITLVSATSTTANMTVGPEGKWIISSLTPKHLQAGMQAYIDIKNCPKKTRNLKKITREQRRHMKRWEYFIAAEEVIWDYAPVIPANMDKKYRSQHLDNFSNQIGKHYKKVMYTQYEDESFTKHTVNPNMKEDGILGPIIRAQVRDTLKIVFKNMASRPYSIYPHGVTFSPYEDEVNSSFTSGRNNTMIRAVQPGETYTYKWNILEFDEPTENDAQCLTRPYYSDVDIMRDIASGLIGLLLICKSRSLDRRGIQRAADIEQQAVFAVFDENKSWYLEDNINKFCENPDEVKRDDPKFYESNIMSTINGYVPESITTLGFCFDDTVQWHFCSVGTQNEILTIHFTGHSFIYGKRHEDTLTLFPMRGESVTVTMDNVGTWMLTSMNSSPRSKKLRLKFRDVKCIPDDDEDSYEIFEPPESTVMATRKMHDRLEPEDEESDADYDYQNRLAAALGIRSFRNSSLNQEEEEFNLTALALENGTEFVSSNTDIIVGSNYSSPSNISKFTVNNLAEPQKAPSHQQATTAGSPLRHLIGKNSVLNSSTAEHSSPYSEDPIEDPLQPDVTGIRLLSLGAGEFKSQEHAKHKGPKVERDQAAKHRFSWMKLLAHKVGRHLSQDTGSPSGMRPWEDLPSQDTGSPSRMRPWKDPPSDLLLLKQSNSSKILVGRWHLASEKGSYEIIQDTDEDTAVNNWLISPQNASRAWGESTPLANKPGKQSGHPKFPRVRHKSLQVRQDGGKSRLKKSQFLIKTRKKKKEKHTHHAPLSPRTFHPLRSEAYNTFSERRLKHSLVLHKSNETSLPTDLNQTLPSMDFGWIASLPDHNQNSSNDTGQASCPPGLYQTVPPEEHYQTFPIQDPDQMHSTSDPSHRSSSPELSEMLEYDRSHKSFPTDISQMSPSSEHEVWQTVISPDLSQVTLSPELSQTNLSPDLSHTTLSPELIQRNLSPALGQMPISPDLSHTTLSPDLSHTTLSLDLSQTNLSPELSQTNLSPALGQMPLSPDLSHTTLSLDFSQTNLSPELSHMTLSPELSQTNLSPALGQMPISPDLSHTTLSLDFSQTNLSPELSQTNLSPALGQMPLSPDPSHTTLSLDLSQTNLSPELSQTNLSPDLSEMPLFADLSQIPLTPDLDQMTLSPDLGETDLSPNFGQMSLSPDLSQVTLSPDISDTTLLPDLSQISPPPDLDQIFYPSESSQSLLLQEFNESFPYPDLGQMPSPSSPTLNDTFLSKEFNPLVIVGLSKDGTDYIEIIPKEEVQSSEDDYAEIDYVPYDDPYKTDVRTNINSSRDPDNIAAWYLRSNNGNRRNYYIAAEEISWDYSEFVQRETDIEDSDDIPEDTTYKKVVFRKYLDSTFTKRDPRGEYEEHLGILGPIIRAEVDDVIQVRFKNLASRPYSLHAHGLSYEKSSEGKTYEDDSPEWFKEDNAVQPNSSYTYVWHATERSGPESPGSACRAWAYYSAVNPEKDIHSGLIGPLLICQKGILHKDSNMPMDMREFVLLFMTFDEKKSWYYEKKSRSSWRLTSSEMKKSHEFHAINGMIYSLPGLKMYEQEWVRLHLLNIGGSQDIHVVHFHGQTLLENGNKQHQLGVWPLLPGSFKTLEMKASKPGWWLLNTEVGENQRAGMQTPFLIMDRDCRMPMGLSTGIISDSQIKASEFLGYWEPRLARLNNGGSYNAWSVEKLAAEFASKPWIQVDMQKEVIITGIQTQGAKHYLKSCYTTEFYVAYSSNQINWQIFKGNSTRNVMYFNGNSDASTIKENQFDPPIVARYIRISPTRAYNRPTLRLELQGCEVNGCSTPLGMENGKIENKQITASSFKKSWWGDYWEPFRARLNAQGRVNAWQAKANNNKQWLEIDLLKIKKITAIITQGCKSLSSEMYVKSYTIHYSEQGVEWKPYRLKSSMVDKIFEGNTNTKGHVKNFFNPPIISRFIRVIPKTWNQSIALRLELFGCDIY
# [4] = molecular target: T1, blood clotting factor VII, P08709
# [5] = molecular target: single chain tissue plasminogen activator, P00750
# Sequence of single chain tissue plasminogen activator, P00750 (P00750 36-562): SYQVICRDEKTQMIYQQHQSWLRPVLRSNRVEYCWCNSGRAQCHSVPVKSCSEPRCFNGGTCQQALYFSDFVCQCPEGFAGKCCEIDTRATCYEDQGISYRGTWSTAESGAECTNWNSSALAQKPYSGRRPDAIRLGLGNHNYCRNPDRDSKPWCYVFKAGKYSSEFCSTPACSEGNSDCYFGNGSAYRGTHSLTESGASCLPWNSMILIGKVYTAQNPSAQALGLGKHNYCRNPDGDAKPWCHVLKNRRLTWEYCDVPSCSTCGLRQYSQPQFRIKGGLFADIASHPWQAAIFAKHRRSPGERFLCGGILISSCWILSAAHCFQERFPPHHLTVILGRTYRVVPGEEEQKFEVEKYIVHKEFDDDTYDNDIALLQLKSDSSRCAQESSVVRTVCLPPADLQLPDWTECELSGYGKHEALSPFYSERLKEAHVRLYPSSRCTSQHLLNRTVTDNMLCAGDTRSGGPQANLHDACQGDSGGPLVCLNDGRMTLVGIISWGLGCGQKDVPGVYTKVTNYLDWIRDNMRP
protein,measurement,setting,value
B1,"Resulting PA activity (S-2444), no stimulant, 2 min, FVII activator 2 µg/ml",[1],25 Δ mIU/min
same,"Resulting PA activity (S-2444), no stimulant, 2 min, FVII activator 5 µg/ml",[1],60 Δ mIU/min
same,"Resulting PA activity (S-2444), no stimulant, 2 min, FVII activator 10 µg/ml",[1],117 Δ mIU/min
same,"Resulting PA activity (S-2444), no stimulant, 5 min, FVII activator 2 µg/ml",[1],79 Δ mIU/min
same,"Resulting PA activity (S-2444), no stimulant, 5 min, FVII activator 5 µg/ml",[1],179 Δ mIU/min
same,"Resulting PA activity (S-2444), no stimulant, 5 min, FVII activator 10 µg/ml",[1],165 Δ mIU/min
same,"Resulting PA activity (S-2444), no stimulant, 10 min, FVII activator 2 µg/ml",[1],186 Δ mIU/min
same,"Resulting PA activity (S-2444), no stimulant, 10 min, FVII activator 5 µg/ml",[1],449 Δ mIU/min
same,"Resulting PA activity (S-2444), no stimulant, 10 min, FVII activator 10 µg/ml",[1],517 Δ mIU/min
same,"Resulting PA activity (S-2444), stimulant CaCl2, 2 min, FVII activator 2 µg/ml",[1],255 Δ mIU/min
same,"Resulting PA activity (S-2444), stimulant CaCl2, 2 min, FVII activator 5 µg/ml",[1],370 Δ mIU/min
same,"Resulting PA activity (S-2444), stimulant CaCl2, 2 min, FVII activator 10 µg/ml",[1],401 Δ mIU/min
same,"Resulting PA activity (S-2444), stimulant CaCl2, 5 min, FVII activator 2 µg/ml",[1],338 Δ mIU/min
same,"Resulting PA activity (S-2444), stimulant CaCl2, 5 min, FVII activator 5 µg/ml",[1],424 Δ mIU/min
same,"Resulting PA activity (S-2444), stimulant CaCl2, 5 min, FVII activator 10 µg/ml",[1],438 Δ mIU/min
same,"Resulting PA activity (S-2444), stimulant CaCl2, 10 min, FVII activator 2 µg/ml",[1],416 Δ mIU/min
same,"Resulting PA activity (S-2444), stimulant CaCl2, 10 min, FVII activator 5 µg/ml",[1],445 Δ mIU/min
same,"Resulting PA activity (S-2444), stimulant CaCl2, 10 min, FVII activator 10 µg/ml",[1],448 Δ mIU/min
same,"Resulting PA activity (S-2444), stimulant heparin, 2 min, FVII activator 2 µg/ml",[1],190 Δ mIU/min
same,"Resulting PA activity (S-2444), stimulant heparin, 2 min, FVII activator 5 µg/ml",[1],332 Δ mIU/min
same,"Resulting PA activity (S-2444), stimulant heparin, 2 min, FVII activator 10 µg/ml",[1],425 Δ mIU/min
same,"Resulting PA activity (S-2444), stimulant heparin, 5 min, FVII activator 2 µg/ml",[1],330 Δ mIU/min
same,"Resulting PA activity (S-2444), stimulant heparin, 5 min, FVII activator 5 µg/ml",[1],455 Δ mIU/min
same,"Resulting PA activity (S-2444), stimulant heparin, 5 min, FVII activator 10 µg/ml",[1],458 Δ mIU/min
same,"Resulting PA activity (S-2444), stimulant heparin, 10 min, FVII activator 2 µg/ml",[1],417 Δ mIU/min
same,"Resulting PA activity (S-2444), stimulant heparin, 10 min, FVII activator 5 µg/ml",[1],462 Δ mIU/min
same,"Resulting PA activity (S-2444), stimulant heparin, 10 min, FVII activator 10 µg/ml",[1],460 Δ mIU/min
same,"FVIII activity (% of control without protease), FVIII essentially free of vWF, protease 10 µg/ml, CaCl2, 0 min",[2],97%
same,"FVIII activity (% of control without protease), FVIII essentially free of vWF, protease 10 µg/ml, CaCl2, 5 min",[2],27%
same,"FVIII activity (% of control without protease), FVIII essentially free of vWF, protease 10 µg/ml, CaCl2, 10 min",[2],11%
same,"FVIII activity (% of control without protease), FVIII essentially free of vWF, protease 10 µg/ml, CaCl2, 20 min",[2],< 1%
same,"FVIII activity (% of control without protease), FVIII solution containing vWF, protease 10 µg/ml, CaCl2, 0 min",[2],98%
same,"FVIII activity (% of control without protease), FVIII solution containing vWF, protease 10 µg/ml, CaCl2, 5 min",[2],16%
same,"FVIII activity (% of control without protease), FVIII solution containing vWF, protease 10 µg/ml, CaCl2, 10 min",[2],14%
same,"FVIII activity (% of control without protease), FVIII solution containing vWF, protease 10 µg/ml, CaCl2, 20 min",[2],1%
same,"residual active FVIII (chromogenic FVIII test), 10 min, protease 0.1, 1 and 10 µg/ml",[2],"As the protease concentration increased, correspondingly more FVIII was inactivated"
same,"residual active FVIII (chromogenic FVIII test), protease 10 µg/ml, incubation time varied",[2],A marked reduction in the residual concentration of active FVIII was seen as the length of incubation increased
same,share of FVIII spared from the protease at calcium below 0.5 mM,[2],the percentage spared is more than 60%
same,share of FVIII spared from the protease at calcium below 1 mM,[2],approx. 50% of the FVIII is then spared
same,"Residual FV activity, protease 10 µg/ml, incubation 20 min",[3],100
same,"Residual FV activity, protease 10 µg/ml, incubation column headed 0 (min)",[3],93
same,"Residual FV activity, protease 10 µg/ml, incubation column headed 0 (min), second column",[3],91
same,"Residual FV activity, protease 30 µg/ml, incubation 20 min",[3],28
same,"Residual FV activity, protease 30 µg/ml, incubation column headed 0 (min)",[3],100
same,"Residual FV activity, protease 30 µg/ml, incubation column headed 0 (min), second column",[3],93
same,"Residual FV activity, protease 100 µg/ml, incubation 20 min",[3],13
same,"Residual FV activity, protease 100 µg/ml, incubation column headed 0 (min)",[3],100
same,"Residual FV activity, protease 100 µg/ml, incubation column headed 0 (min), second column",[3],29
same,"FVII activation factor (x control), protease solution diluted 1:5, 5 min at RT (x times control)",[4],2.6
same,"FVII activation factor (x control), protease solution diluted 1:10, 5 min at RT (x times control)",[4],2
same,"FVII activation factor (x control), protease solution diluted 1:20, 5 min at RT (x times control)",[4],1.6
same,"FVII activation factor, 0.2 IU FVII/ml + 1:10 protease solution, incubation 0 min (x times control)",[4],1
same,"FVII activation factor, 0.2 IU FVII/ml + 1:10 protease solution, incubation 2.5 min (x times control)",[4],1.3
same,"FVII activation factor, 0.2 IU FVII/ml + 1:10 protease solution, incubation 5.0 min (x times control)",[4],2
same,"FVII activation factor, 0.2 IU FVII/ml + 1:10 protease solution, incubation 10.0 min (x times control)",[4],2.8
same,"FVII activation factor, 0.2 IU FVII/ml + 1:10 protease solution, incubation 40.0 min (x times control)",[4],< 3.8
same,"FVIIa content (Staclot FVIIa-rTF test) after protease + FVII, 10 min, then aprotinin",[4],18 mlU of FVIIa/ml
same,"FVIIa formed by the action of the protease, after subtracting the base value",[4],8 mlU of FVIIa/ml have therefore been formed by the action of the protease
same,"PA activity (S-2444), 20 min at 37° C., heparin 100 IU/ml, FVII activator 50 µg/ml",[5],33.6 Δ mIU/min
same,"PA activity (S-2444), 20 min at 37° C., heparin 100 IU/ml, FVII activator 100 µg/ml",[5],51 Δ mIU/min
same,"PA activity (S-2444), 20 min at 37° C., heparin 100 IU/ml, FVII activator 200 µg/ml",[5],71.9 Δ mIU/min
same,"PA activity (S-2444), 20 min at 37° C., stimulant: CaCl2",[5],25.3 Δ mIU/min
same,"PA activity (S-2444), 20 min at 37° C., stimulant: heparin",[5],63.8 Δ mIU/min
same,"PA activity (S-2444), 20 min at 37° C., stimulant: none",[5],5.9 Δ mIU/min
same,"Resulting PA activity (S-2444), sctPA 100 µg/ml, incubation 1 min (FVII activator concentration not given)",[5],10.2 Δ mIU/min
same,"Resulting PA activity (S-2444), sctPA 100 µg/ml, incubation 2 min (FVII activator concentration not given)",[5],16.8 Δ mIU/min
same,"Resulting PA activity (S-2444), sctPA 100 µg/ml, incubation 5 min (FVII activator concentration not given)",[5],38.8 Δ mIU/min
same,"Resulting PA activity (S-2444), sctPA 100 µg/ml, incubation 10 min (FVII activator concentration not given)",[5],60.2 Δ mIU/min
same,"Resulting PA activity (S-2444), sctPA 100 µg/ml, incubation 20 min (FVII activator concentration not given)",[5],73.3 Δ mIU/min
